Measured values reported in the supplement of paper PMC10567573.

B1: WDFY1 (parent)
chain: FWNIKQMWDTKTLGLRQHHCRKCG

Variants of: B1
Assay: protein stability index of a GFP-peptide fusion (GPS, HEK-293T) (PSI 1-6); higher = more stable
Conditions: c terminus: a fixed tail appended
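Further: lentivirally expressed fusions sorted by FACS into six bins by GFP to DsRed ratio, PSI derived from sequencing read proportions per bin multiplied by bin number.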

Variant	protein stability index
FWNIKQMWDTKTLTLRQHHCRKCG [G14T]	2.68
FWNIKQMWDTKTLVLRQHHCRKCG [G14V]	1.58
FWNIKQMWDTKTLWLRQHHCRKCG [G14W]	1.87
FWNIKQMWDTKTLYLRQHHCRKCG [G14Y]	1.48
FWNIKQMWDTKTLGARQHHCRKCG [L15A]	2.27
FWNIKQMWDTKTLGCRQHHCRKCG [L15C]	1.75
FWNIKQMWDTKTLGDRQHHCRKCG [L15D]	1.56
FWNIKQMWDTKTLGERQHHCRKCG [L15E]	3.35
FWNIKQMWDTKTLGFRQHHCRKCG [L15F]	1.91
FWNIKQMWDTKTLGGRQHHCRKCG [L15G]	1.78
FWNIKQMWDTKTLGHRQHHCRKCG [L15H]	2.43
FWNIKQMWDTKTLGIRQHHCRKCG [L15I]	1.75
FWNIKQMWDTKTLGKRQHHCRKCG [L15K]	2.14
FWNIKQMWDTKTLGMRQHHCRKCG [L15M]	1.79
FWNIKQMWDTKTLGNRQHHCRKCG [L15N]	2.07
FWNIKQMWDTKTLGPRQHHCRKCG [L15P]	1.55
FWNIKQMWDTKTLGQRQHHCRKCG [L15Q]	2.29
FWNIKQMWDTKTLGRRQHHCRKCG [L15R]	1.93
FWNIKQMWDTKTLGSRQHHCRKCG [L15S]	2.95
FWNIKQMWDTKTLGTRQHHCRKCG [L15T]	2.43
FWNIKQMWDTKTLGVRQHHCRKCG [L15V]	2.35
FWNIKQMWDTKTLGYRQHHCRKCG [L15Y]	1.98
FWNIKQMWDTKTLGLAQHHCRKCG [R16A]	1.45
FWNIKQMWDTKTLGLCQHHCRKCG [R16C]	1.59

Variant	protein stability index
FWNIKQMWDTKTLGLDQHHCRKCG [R16D]	2.84
FWNIKQMWDTKTLGLEQHHCRKCG [R16E]	2.3
FWNIKQMWDTKTLGLGQHHCRKCG [R16G]	1.64
FWNIKQMWDTKTLGLHQHHCRKCG [R16H]	2.5
FWNIKQMWDTKTLGLIQHHCRKCG [R16I]	1.43
FWNIKQMWDTKTLGLKQHHCRKCG [R16K]	2.89
FWNIKQMWDTKTLGLLQHHCRKCG [R16L]	1.79
FWNIKQMWDTKTLGLMQHHCRKCG [R16M]	1.65
FWNIKQMWDTKTLGLNQHHCRKCG [R16N]	2.1
FWNIKQMWDTKTLGLPQHHCRKCG [R16P]	1.8
FWNIKQMWDTKTLGLQQHHCRKCG [R16Q]	1.94
FWNIKQMWDTKTLGLSQHHCRKCG [R16S]	2.21
FWNIKQMWDTKTLGLTQHHCRKCG [R16T]	2.55
FWNIKQMWDTKTLGLVQHHCRKCG [R16V]	1.88
FWNIKQMWDTKTLGLWQHHCRKCG [R16W]	1.14
FWNIKQMWDTKTLGLYQHHCRKCG [R16Y]	1.6
FWNIKQMWDTKTLGLRAHHCRKCG [Q17A]	1.6
FWNIKQMWDTKTLGLRCHHCRKCG [Q17C]	2.13
FWNIKQMWDTKTLGLRDHHCRKCG [Q17D]	1.63
FWNIKQMWDTKTLGLREHHCRKCG [Q17E]	2.56
FWNIKQMWDTKTLGLRFHHCRKCG [Q17F]	1.88
FWNIKQMWDTKTLGLRGHHCRKCG [Q17G]	2.98
FWNIKQMWDTKTLGLRHHHCRKCG [Q17H]	1.83
FWNIKQMWDTKTLGLRIHHCRKCG [Q17I]	1.81

Variant	protein stability index
FWNIKQMWDTKTLGLRKHHCRKCG [Q17K]	1.99
FWNIKQMWDTKTLGLRLHHCRKCG [Q17L]	2.53
FWNIKQMWDTKTLGLRMHHCRKCG [Q17M]	1.7
FWNIKQMWDTKTLGLRNHHCRKCG [Q17N]	2.14
FWNIKQMWDTKTLGLRPHHCRKCG [Q17P]	2.13
FWNIKQMWDTKTLGLRRHHCRKCG [Q17R]	2.75
FWNIKQMWDTKTLGLRSHHCRKCG [Q17S]	2.05
FWNIKQMWDTKTLGLRTHHCRKCG [Q17T]	2.12
FWNIKQMWDTKTLGLRVHHCRKCG [Q17V]	1.68
FWNIKQMWDTKTLGLRWHHCRKCG [Q17W]	2.02
FWNIKQMWDTKTLGLRYHHCRKCG [Q17Y]	1.98
FWNIKQMWDTKTLGLRQAHCRKCG [H18A]	1.84
FWNIKQMWDTKTLGLRQCHCRKCG [H18C]	3
FWNIKQMWDTKTLGLRQDHCRKCG [H18D]	2.92
FWNIKQMWDTKTLGLRQEHCRKCG [H18E]	2.21
FWNIKQMWDTKTLGLRQFHCRKCG [H18F]	1.64
FWNIKQMWDTKTLGLRQGHCRKCG [H18G]	2.39
FWNIKQMWDTKTLGLRQIHCRKCG [H18I]	2.01
FWNIKQMWDTKTLGLRQKHCRKCG [H18K]	1.89
FWNIKQMWDTKTLGLRQLHCRKCG [H18L]	2.31
FWNIKQMWDTKTLGLRQMHCRKCG [H18M]	2.27
FWNIKQMWDTKTLGLRQNHCRKCG [H18N]	2.35
FWNIKQMWDTKTLGLRQPHCRKCG [H18P]	2.63
FWNIKQMWDTKTLGLRQQHCRKCG [H18Q]	1.82

Variant	protein stability index
FWNIKQMWDTKTLGLRQRHCRKCG [H18R]	2.21
FWNIKQMWDTKTLGLRQSHCRKCG [H18S]	2.58
FWNIKQMWDTKTLGLRQTHCRKCG [H18T]	3.16
FWNIKQMWDTKTLGLRQVHCRKCG [H18V]	2.02
FWNIKQMWDTKTLGLRQWHCRKCG [H18W]	2.06
FWNIKQMWDTKTLGLRQYHCRKCG [H18Y]	2.08
FWNIKQMWDTKTLGLRQHACRKCG [H19A]	2.14
FWNIKQMWDTKTLGLRQHCCRKCG [H19C]	2.14
FWNIKQMWDTKTLGLRQHDCRKCG [H19D]	2.21
FWNIKQMWDTKTLGLRQHECRKCG [H19E]	2.09
FWNIKQMWDTKTLGLRQHFCRKCG [H19F]	1.64
FWNIKQMWDTKTLGLRQHGCRKCG [H19G]	1.63
FWNIKQMWDTKTLGLRQHICRKCG [H19I]	2
FWNIKQMWDTKTLGLRQHKCRKCG [H19K]	2.33
FWNIKQMWDTKTLGLRQHLCRKCG [H19L]	2.23
FWNIKQMWDTKTLGLRQHMCRKCG [H19M]	1.92
FWNIKQMWDTKTLGLRQHNCRKCG [H19N]	2.23
FWNIKQMWDTKTLGLRQHPCRKCG [H19P]	2.66
FWNIKQMWDTKTLGLRQHQCRKCG [H19Q]	2.4
FWNIKQMWDTKTLGLRQHRCRKCG [H19R]	1.75
FWNIKQMWDTKTLGLRQHSCRKCG [H19S]	2.13
FWNIKQMWDTKTLGLRQHTCRKCG [H19T]	1.59
